Values of other authors, collected in publication PMC3210788.

Target: VEGFR-1 (Mus musculus) (UniProt P35969)
UniProt P35969, sequence (P35969 23-1333 S1181G): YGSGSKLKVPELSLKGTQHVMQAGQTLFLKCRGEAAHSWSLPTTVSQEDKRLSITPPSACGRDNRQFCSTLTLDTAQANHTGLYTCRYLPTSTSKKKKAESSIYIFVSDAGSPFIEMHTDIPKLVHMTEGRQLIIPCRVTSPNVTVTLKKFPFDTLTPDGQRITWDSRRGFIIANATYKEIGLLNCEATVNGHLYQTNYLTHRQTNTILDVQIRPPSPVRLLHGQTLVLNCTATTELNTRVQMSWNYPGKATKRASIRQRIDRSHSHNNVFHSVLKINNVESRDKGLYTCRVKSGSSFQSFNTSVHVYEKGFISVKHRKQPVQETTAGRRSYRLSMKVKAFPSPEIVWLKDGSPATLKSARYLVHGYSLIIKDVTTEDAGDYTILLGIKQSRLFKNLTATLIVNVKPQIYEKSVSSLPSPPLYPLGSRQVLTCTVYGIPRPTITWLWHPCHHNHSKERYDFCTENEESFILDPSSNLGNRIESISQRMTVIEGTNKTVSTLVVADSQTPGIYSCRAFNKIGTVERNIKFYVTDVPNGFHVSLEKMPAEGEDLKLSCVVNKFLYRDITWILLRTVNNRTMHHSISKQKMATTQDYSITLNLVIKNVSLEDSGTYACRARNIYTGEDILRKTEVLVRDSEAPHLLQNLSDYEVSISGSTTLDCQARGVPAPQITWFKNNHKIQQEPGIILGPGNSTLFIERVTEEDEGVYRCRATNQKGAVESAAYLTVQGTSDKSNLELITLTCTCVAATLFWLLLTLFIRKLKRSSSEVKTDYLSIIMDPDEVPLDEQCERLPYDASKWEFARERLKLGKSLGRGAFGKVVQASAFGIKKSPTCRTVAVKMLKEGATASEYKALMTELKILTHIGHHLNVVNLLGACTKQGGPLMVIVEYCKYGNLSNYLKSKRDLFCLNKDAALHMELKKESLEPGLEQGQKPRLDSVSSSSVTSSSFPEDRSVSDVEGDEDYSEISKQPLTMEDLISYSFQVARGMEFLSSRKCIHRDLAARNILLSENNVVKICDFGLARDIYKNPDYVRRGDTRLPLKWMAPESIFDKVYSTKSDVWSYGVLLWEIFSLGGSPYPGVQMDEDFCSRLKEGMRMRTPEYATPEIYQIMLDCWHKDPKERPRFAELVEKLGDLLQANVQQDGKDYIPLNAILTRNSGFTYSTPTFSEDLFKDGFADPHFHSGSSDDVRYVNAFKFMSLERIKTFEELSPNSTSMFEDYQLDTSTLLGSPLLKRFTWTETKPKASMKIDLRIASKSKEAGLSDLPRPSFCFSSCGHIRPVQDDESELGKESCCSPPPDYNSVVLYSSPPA

VEGF (from UniProt Q00731)
Kd: 0.033 nM
